In patent US20140336110A1:
Starred links: 1 amine or outer side, 2 acyl side, 3 side chain; linkers in the order of their positions; H or OH if unused. Non-standard residues stand in square brackets, D forms with d. Primed or numbered codes have the meaning given here. No end group written: not given here. *: point of attachment. PEG12 = NCCOCCOCCOCCOCCOCCOCCOCCOCCOCCOCCOCCOCCC(=O)O; Oic = O=C(O)[C@@H]1C[C@@H]2CCCC[C@@H]2N1; Dip = N[C@H](C(=O)O)C(c1ccccc1)c1ccccc1; Ida″ = O=C(CN(CC(=O)[*:3])[*:1])[*:2]; Palmitoyl = CCCCCCCCCCCCCCCC(=O)*; β3hF = N[C@H](CC(=O)O)Cc1ccccc1; NMeD = CN[C@@H](CC(=O)O)C(=O)O; β3hP = O=C(O)C[C@@H]1CCCN1; Ach = not defined here; Dpa = not defined here

What follows are binders tested against ferroportin tagged at the C-terminus with green fluorescent protein [GFP: P42212] (assay: cell-based or functional assay).

Row | Binder | EC50 (nM) in vitro [nM]
1 | [NMeD]TH[Dpa]P[Ach]C[Ach]F (reading uncertain; also: R14 = Palmitoyl-PEG-miniPEG3- substituent, attachment not placed) [PR55] | 10
2 | {Palmitoyl-PEG12}-[Dip]ICIP[Dip]HTD (not fully specified (C-terminus); printed as R4-Dpa-I-C-I-P-Dpa-H-T-D; also: retroinverted, D residues underlined, underlining lost) [PR48] | 50
3 | [NMeD]TH[Dpa][Oic]RCR[β3hF] (reading uncertain; also: R14 = Palmitoyl-PEG-miniPEG3- substituent, attachment not placed) [PR56] | 15
4 | [NMeD]TH[Dpa]PICI[β3hF] (reading uncertain; also: R14 = Palmitoyl-PEG-miniPEG3- substituent, attachment not placed) [PR53] | 10
5 | {Palmitoyl-PEG12}-FICIP[Dip]H (not fully specified (C-terminus); printed as R4-F-I-C-I-P-Dpa-H; also: retroinverted, D residues underlined, underlining lost) [PR49] | < 10
6 | [Ida″]TH[Dpa]PICI[β3hF] (reading uncertain; also: R14 = Palmitoyl-PEG-miniPEG3- substituent, attachment not placed) [PR58] | 1
7 | [NMeD]TH[Dpa][β3hP]ICI[β3hF] (reading uncertain; also: R14 = Palmitoyl-PEG-miniPEG3- substituent, attachment not placed) [PR54] | 10
8 | [Ida″]TH[Dpa]P[Ach]C[Ach]F (reading uncertain; also: R14 = Palmitoyl-PEG-miniPEG3- substituent, attachment not placed) [PR60] | 3
9 | {Palmitoyl-PEG12}-FICIP[Dip]HTD (not fully specified (C-terminus); printed as R4-F-I-C-I-P-Dpa-H-T-D; also: retroinverted, D residues underlined, underlining lost) [PR47] | 50
10 | {Palmitoyl-PEG12}-FVCVP[Dip]HTD (not fully specified (C-terminus); printed as R4-F-V-C-V-P-Dpa-H-T-D; also: retroinverted, D residues underlined, underlining lost) [PR51] | 100

Second part, the binder after the results:

Row | EC50 (nM) in vitro [nM] | Binder
11 | < 10 | {Palmitoyl-PEG12}-FLCLP[Dip]HTD (not fully specified (C-terminus); printed as R4-F-L-C-L-P-Dpa-H-T-D; also: retroinverted, D residues underlined, underlining lost) [PR52]
12 | < 10 | {Palmitoyl-PEG12}-[Dip]ICIP[Dip]H (not fully specified (C-terminus); printed as R4-Dpa-I-C-I-P-Dpa-H; also: retroinverted, D residues underlined, underlining lost) [PR50]
13 | 2 | [NMeD]TH[Dpa][β3hP]RCR[β3hF] (reading uncertain; also: R14 = Palmitoyl-PEG-miniPEG3- substituent, attachment not placed) [PR57]
14 | 2 | [Ida″]TH[Dpa][β3hP]ICI[β3hF] (reading uncertain; also: R14 = Palmitoyl-PEG-miniPEG3- substituent, attachment not placed) [PR59]

Biological target: ferroportin tagged at the C-terminus with green fluorescent protein [GFP: P42212]
Assay: cell-based or functional assay
Remark: another data set of the same source

Row | relative hepcidin activity (FIG. 1) [% decrease] | potency against Hep25 on a mass basis, flow-cytometry assay of ferroportin-GFP internalization (times less potent than Hep25) | potency against Hep25 on a molar basis, flow-cytometry assay of ferroportin-GFP internalization (times less potent than Hep25) | Binder
15 | > 70 |  |  | DTHAPICIFCCGCCHRSKCGMCCKT [Hep25 F4A]
16 |  | 4 | 10 | DTHFPIAIFC-NH2 [Hep10 (Hep1-10 C7A)]
17 | > 70 |  |  | DTHFPICIACCGCCHRSKCGMCCKT [Hep25 F9A]
18 |  | 4 | 10 | DTHFPICIF-NH2 [Hep9 (Hep1-9)]
